{"source": "IntAct's records for PubMed 23929946", "parents": {"B1": {"name": "Protein BRASSINOSTEROID … 1 (Arabidopsis thaliana (Mouse-ear cress)), O22476 (parent)", "chain": "MKTFSSFFLSVTTLFFFSFFSLSFQASPSQSLYREIHQLISFKDVLPDKNLLPDWSSNKNPCTFDGVTCRDDKVTSIDLSSKPLNVGFSAVSSSLLSLTGLESLFLSNSHINGSVSGFKCSASLTSLDLSRNSLSGPVTTLTSLGSCSGLKFLNVSSNTLDFPGKVSGGLKLNSLEVLDLSANSISGANVVGWVLSDGCGELKHLAISGNKISGDVDVSRCVNLEFLDVSSNNFSTGIPFLGDCSALQHLDISGNKLSGDFSRAISTCTELKLLNISSNQFVGPIPPLPLKSLQYLSLAENKFTGEIPDFLSGACDTLTGLDLSGNHFYGAVPPFFGSCSLLESLALSSNNFSGELPMDTLLKMRGLKVLDLSFNEFSGELPESLTNLSASLLTLDLSSNNFSGPILPNLCQNPKNTLQELYLQNNGFTGKIPPTLSNCSELVSLHLSFNYLSGTIPSSLGSLSKLRDLKLWLNMLEGEIPQELMYVKTLETLILDFNDLTGEIPSGLSNCTNLNWISLSNNRLTGEIPKWIGRLENLAILKLSNNSFSGNIPAELGDCRSLIWLDLNTNLFNGTIPAAMFKQSGKIAANFIAGKRYVYIKNDGMKKECHGAGNLLEFQGIRSEQLNRLSTRNPCNITSRVYGGHTSPTFDNNGSMMFLDMSYNMLSGYIPKEIGSMPYLFILNLGHNDISGSIPDEVGDLRGLNILDLSSNKLDGRIPQAMSALTMLTEIDLSNNNLSGPIPEMGQFETFPPAKFLNNPGLCGYPLPRCDPSNADGYAHHQRSHGRRPASLAGSVAMGLLFSFVCIFGLILVGREMRKRRRKKEAELEMYAEGHGNSGDRTANNTNWKLTGVKEALSINLAAFEKPLRKLTFADLLQATNGFHNDSLIGSGGFGDVYKAILKDGSAVAIKKLIHVSGQGDREFMAEMETIGKIKHRNLVPLLGYCKVGDERLLVYEFMKYGSLEDVLHDPKKAGVKLNWSTRRKIAIGSARGLAFLHHNCSPHIIHRDMKSSNVLLDENLEARVSDFGMARLMSAMDTHLSVSTLAGTPGYVPPEYYQSFRCSTKGDVYSYGVVLLELLTGKRPTDSPDFGDNNLVGWVKQHAKLRISDVFDPELMKEDPALEIELLQHLKVAVACLDDRAWRRPTMVQVMAMFKEIQAGSGIDSQSTIRSIEDGGFSTIEMVDMSIKEVPEGKL", "partner": "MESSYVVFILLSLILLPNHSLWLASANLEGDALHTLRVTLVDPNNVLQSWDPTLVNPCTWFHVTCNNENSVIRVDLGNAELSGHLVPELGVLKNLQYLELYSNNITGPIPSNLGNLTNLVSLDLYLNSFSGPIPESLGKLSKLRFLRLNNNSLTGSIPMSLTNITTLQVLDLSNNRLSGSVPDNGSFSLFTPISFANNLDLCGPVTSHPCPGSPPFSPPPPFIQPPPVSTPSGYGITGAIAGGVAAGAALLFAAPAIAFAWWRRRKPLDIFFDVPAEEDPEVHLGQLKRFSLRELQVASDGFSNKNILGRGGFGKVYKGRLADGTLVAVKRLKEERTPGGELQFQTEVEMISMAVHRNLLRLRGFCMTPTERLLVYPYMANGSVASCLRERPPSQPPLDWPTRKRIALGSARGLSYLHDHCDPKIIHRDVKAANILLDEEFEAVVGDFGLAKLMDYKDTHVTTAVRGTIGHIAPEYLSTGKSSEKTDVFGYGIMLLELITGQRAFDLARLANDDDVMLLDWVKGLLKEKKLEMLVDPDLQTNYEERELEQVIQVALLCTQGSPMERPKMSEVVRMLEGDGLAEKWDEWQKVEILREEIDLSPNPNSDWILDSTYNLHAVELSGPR"}}}
{"variants_of": "B1", "settings": "with serk1_arath SERK1, Q94AG2"}
{"variant": "T750I", "effect of a mutation on the interaction": "disrupting interaction strength"}
